Data on three molecules can be found in patent US20090318342A1, “Compounds” (IMPERIAL INNOVATIONS LIMITED, priority 2005, published 2009).

Assay [1] addresses soluble form of TACE (TACE R651) (Homo sapiens, UniProt P78536). Briefly: Enzyme inhibition kinetic study, TACE. Format: biochemical. On the procedure: FIG. 2. Inhibition of MMP and TACE by N-TIMP-3 and its mutants. A. Inhibition of MMP-14(CD) by wild-type and mutated N-TIMP-3. Open circles, wild-type N-TIMP-3; closed circles, T2G; and open squares, -1A. B. Comparison of the inhibition of TACE by wild-type N-TIMP-3, N-TIMP-1 and TAPI-2. The inhibitors were incubated with 0.5 nM TACE for 3 hr at room temperature, and the residual enzyme activity was measured with 10 μM Substrate III (R&D Systems). […] Open circles, N-TIMP-3; closed circles, TAPI-2; and open squares, N-TIMP-1. C. Inhibition of TACE (0.5 nM) by wild-type and mutated N-TIMP-3. Open circles, wild-type inhibitor; closed circles, T2G; and open squares, -1A.
Enzyme inhibition kinetic studies—Inhibition kinetic studies for MMPs and TACE were carried out as described previously (19, 27) with modifications. Purified N-TIMP-3 and mutants were dialyzed against 20 mM Tris-HCl (pH 7.0), 50 mM NaCl containing 20% glycerol, centrifuged at 14,000 rpm for 10 min to remove any precipitate, and protein concentration was re-measured before conducting inhibition assays. Since NaCl inhibits the activity of the TACE ectodomain in vitro (28), we adjusted the final concentration of NaCl to 1 mM in all assays with TACE. Equal volumes (10% of total assay volume) of diluted solutions of N-TIMP-3 and mutants were added to TACE assays, resulting in a final pH of 8.8.
where v is the experimentally determined reaction velocity, v0 is the uninhibited activity, E is enzyme concentration, I is inhibitor concentration, K is the apparent inhibition constant (Ki^(app)) and h is the Hill coefficient.
The inhibitory activities of the mutants were also compared with that of wild-type N-TIMP-3 against a soluble form of TACE in which the transmembrane and C-terminal cytoplasmic domains are deleted (TACE R651; (28)). […] The inhibition curve of TACE by wild-type N-TIMP-3 is sigmoid, in striking contrast with the inhibition by TAPI-2 and with the inhibition of MMPs by N-TIMP-3 and N-TIMP-1 (FIGS. 2A, 2B; (31)). Sigmoid inhibition curves were also obtained for TACE with the T2G and -1A mutants of N-TIMP-3 (FIG. 2C).

For the next assay, the target named is T1, ADAMTS-5 (Homo sapiens, UniProt Q9UNA0).
T1 sequence (Q9UNA0 262-930): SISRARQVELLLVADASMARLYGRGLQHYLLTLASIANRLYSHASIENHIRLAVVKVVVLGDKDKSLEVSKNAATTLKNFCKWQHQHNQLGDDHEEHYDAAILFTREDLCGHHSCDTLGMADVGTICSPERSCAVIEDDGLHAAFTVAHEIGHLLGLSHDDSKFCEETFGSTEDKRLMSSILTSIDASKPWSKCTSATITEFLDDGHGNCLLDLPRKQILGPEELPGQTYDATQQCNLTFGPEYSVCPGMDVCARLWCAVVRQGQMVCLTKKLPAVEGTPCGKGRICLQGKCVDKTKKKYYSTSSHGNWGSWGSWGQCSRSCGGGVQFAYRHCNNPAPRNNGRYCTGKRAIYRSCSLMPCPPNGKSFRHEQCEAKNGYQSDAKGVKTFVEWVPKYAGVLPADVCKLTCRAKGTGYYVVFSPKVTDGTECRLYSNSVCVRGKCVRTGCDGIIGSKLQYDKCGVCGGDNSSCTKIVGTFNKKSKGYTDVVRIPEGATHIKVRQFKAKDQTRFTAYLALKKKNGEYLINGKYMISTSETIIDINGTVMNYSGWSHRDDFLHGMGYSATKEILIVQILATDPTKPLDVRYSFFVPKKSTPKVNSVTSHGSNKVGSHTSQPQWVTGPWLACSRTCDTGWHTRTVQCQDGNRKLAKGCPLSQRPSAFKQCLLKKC
Briefly: Aggrecanase assay with GST-IGD-FLAG substrate, ADAMTS-5. Format: biochemical. The conditions noted are these: for Ki: Table 3, GST-IGD-FLAG substrate, pH 7.5, 37° C., read-out: Ki(app) ADAMTS-5. On the procedure:
FIG. 8. Graphs of Ki(app) determination. The GST-IGD-FLAG substrate assay was used to determine the Ki(app) of the N-terminal reactive site mutants against ADAMTS-4 (filled squares) and ADAMTS-5 (open circles).
The substrate containing glutathione S-transferase (GST) fused with the interglobular domain (IGD) of aggrecan (Tyr^331 to Gly^457) attached with a C-terminal FLAG sequence (GST-IGD-FLAG) was prepared by cloning it into pGEX-4T1 at the EcoR1 and Xho1 cloning sites. This substrate was expressed in E. coli strain BL-21 (non-DE3) transfected with the pGEX4T1 GST-IGD-FLAG plasmid by induction with […] isopropyl-beta-D-thiogalactopyranoside (IPTG). After induction, bacteria were collected by centrifugation and resuspended in 20 ml of 50 mM Tris-HCl (pH 8.0), 150 mM NaCl, 0.02% NaN3, […] DTT, […] EDTA with proteinase inhibitor cocktail set II inhibitors (Merck, Nottingham, UK). The resuspended bacteria were then disrupted mechanically using a French Press (5×1500 Psi). After centrifugation at 24,000 g (30 min, 4° C.), the supernatant, containing the expressed GST-IGD-FLAG, was applied to a glutathione-Sepharose 4B column (Qiagen, Crawley, UK). The column was washed with 0.5 M NaCl, 50 mM Tris-HCl (pH 8.0) and eluted with 10 mM reduced glutathione, 50 mM Tris-HCl (pH 8.0). The eluted material was dialysed three times against 10 volumes of 50 mM Tris-HCl (pH 8.0), 150 mM NaCl. […] The concentration of intact substrate (52 kDa) was determined by comparison with Coomassie Brilliant Blue staining of known amounts of bovine serum albumin (GE Healthsciences, Buckinghampshire, UK). […]
Aggrecanase assays were carried out in 50 mM Tris HCl pH 7.5, 150 mM NaCl, 10 mM CaCl2, 0.02% NaN3, 0.05% Brij-35 at 37° C. […] The stained gels were then scanned using a scanning densitometer (Biorad GS-710, Hemel Hempstead, UK) and the band intensity of the product (17 kDa) quantified using the 1D Phoretix quantification software (Nonlinear Dynamics, Newcastle upon Tyne, UK). Background subtraction was done using the rolling ball method, and band intensity expressed as pixel volumes.

Setting [2] is: Table II, 0.5 nM TACE, pH 9.0, 1 mM NaCl, fit with equation 3.
Setting [3] is: Table II, 0.5 nM TACE, pH 9.0, 1 mM NaCl, fit with equation 3, read-out: Ki(app) TACE.

Like-named read-outs stand apart in the source and are kept apart here.

soluble form of TACE (TACE R651), sequence (P78536 215-651): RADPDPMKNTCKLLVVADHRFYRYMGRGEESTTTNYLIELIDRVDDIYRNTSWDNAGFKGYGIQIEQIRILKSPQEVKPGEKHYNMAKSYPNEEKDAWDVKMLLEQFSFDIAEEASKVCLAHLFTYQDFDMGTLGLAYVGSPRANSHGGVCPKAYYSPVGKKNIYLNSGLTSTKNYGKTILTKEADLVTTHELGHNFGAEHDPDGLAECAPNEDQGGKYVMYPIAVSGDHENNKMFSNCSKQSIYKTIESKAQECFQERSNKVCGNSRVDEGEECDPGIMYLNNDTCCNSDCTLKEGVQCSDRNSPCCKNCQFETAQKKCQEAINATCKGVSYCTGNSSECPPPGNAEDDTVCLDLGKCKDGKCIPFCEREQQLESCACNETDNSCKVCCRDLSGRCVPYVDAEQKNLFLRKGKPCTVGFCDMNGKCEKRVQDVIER

B1: -1A: N-TIMP-3 mutant with the addition of an N-terminal alanine extension (-1A) (protein)
chain: ACTCSPSHPQDAFCNSDIVIRAKVVGKKLVKEGPFGTLVYTIKQMKMYRGFTKMPHVQYIHTEASESLCGLKLEVNKYQYLLTGRVYDGKMYTGLCNFVERWDQLTLSQRKGLNYRYHLGCN
Consider B1, for which the “h (Hill coefficient) for TACE inhibition” value in assay [1] (setting [2]) is on record as 1.9 ± 0.22. Moreover, the Ki turned out to be 33.9 ± 2.8 nM in assay [1] (setting [3]) and 1.9 ± 0.6 nM with ADAMTS-5.

B2: (-2A)N-TIMP-3: N-TIMP-3 mutant with two alanine residues on the N-terminal side of Cysteine1 of the TIMP-3 sequence (protein)
chain: AACTCSPSHPQDAFCNSDIVIRAKVVGKKLVKEGPFGTLVYTIKQMKMYRGFTKMPHVQYIHTEASESLCGLKLEVNKYQYLLTGRVYDGKMYTGLCNFVERWDQLTLSQRKGLNYRYHLGCN
As to B2, the “Inhibition of TACE activity” value in assay [1] (100 nM) is listed as 80-90%. In addition, the “Potency for ADAMTS-5 relative to ADAMTS-4” value with ADAMTS-5 (ADAMTS-5 versus ADAMTS-4) is “about 45 times”.

B3: N-TIMP-3: N-terminal inhibitory domain of TIMP-3 (residues 1 to 121), C-terminally His-tagged, wild-type (protein)
chain: CTCSPSHPQDAFCNSDIVIRAKVVGKKLVKEGPFGTLVYTIKQMKMYRGFTKMPHVQYIHTEASESLCGLKLEVNKYQYLLTGRVYDGKMYTGLCNFVERWDQLTLSQRKGLNYRYHLGCN
Consider B3, for which the “Inhibition of TACE activity (in words)” value in assay [1] (FIG. 2B, 0.5 nM TACE, pH 9.0, 1 mM NaCl) was “effectively inhibited”. In assay [1] (setting [2]), the “h (Hill coefficient) for TACE inhibition” value stood at 3.59 ± 0.16. The Ki is 13.7 ± 0.2 nM in assay [1] (setting [3]); 26 ± 3 nM in assay [1] (pH 7.5, sigmoid inhibition curves, read-out: Ki against TACE at pH 7.5); 0.4 ± 0.2 nM with ADAMTS-5.
